Measured values published in the supplement of paper PMC10065799, “High-throughput profiling of sequence recognition by tyrosine kinases and SH2 domains using bacterial peptide display” (eLife, 2023).

What was measured:
AncSZ = assay: phosphorylation enrichment, bacterial display (enrichment ratio); higher = better substrate or ligand; peptides without Tyr show the background
EPHB1 = EPHB1 (UniProt P54762); assay: as above
EPHB2 = EPHB2 (UniProt P29323); assay: as above
FGFR1 = FGFR1 (UniProt P11362); assay: as above
FGFR3 = FGFR3 (UniProt P22607); assay: as above
Fer (mouse) = assay: as above
Fes = Fes (UniProt P07332); assay: as above
Fyn = Fyn (UniProt P06241); assay: as above
Hck = Hck (UniProt P08631); assay: as above
Jak2 = Jak2 (UniProt O60674); assay: as above
MERTK = MERTK (UniProt Q12866); assay: as above
c-Abl (mouse) = assay: as above
c-Src = assay: as above
Grb2 SH2 = Grb2 SH2 (UniProt P62993); assay: SH2 binding enrichment of the phosphorylated peptide, bacterial display (enrichment ratio); higher = better substrate or ligand; peptides without Tyr show the background
SHP2-C SH2 = assay: as above
c-Src SH2 = assay: as above
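Wherever SH2 binding enrichment of the phosphorylated peptide, bacterial display is given: peptide library displayed on the E. coli surface as eCPX fusions, selected cells deep-sequenced, score is each peptide's frequency after selection divided by its frequency in the input.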
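Wherever phosphorylation enrichment, bacterial display is given: 11-residue human phosphosite peptides and single-mutation variants displayed on the E. coli surface, counted by deep sequencing, each peptide's frequency after selection divided by its frequency in the unselected input library; frequency after pTyr selection over input frequency; kinase dosed for 20-30% of maximal phosphorylation in three min.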

Sequence of FGFR3 (P22607 whole entry, looked up): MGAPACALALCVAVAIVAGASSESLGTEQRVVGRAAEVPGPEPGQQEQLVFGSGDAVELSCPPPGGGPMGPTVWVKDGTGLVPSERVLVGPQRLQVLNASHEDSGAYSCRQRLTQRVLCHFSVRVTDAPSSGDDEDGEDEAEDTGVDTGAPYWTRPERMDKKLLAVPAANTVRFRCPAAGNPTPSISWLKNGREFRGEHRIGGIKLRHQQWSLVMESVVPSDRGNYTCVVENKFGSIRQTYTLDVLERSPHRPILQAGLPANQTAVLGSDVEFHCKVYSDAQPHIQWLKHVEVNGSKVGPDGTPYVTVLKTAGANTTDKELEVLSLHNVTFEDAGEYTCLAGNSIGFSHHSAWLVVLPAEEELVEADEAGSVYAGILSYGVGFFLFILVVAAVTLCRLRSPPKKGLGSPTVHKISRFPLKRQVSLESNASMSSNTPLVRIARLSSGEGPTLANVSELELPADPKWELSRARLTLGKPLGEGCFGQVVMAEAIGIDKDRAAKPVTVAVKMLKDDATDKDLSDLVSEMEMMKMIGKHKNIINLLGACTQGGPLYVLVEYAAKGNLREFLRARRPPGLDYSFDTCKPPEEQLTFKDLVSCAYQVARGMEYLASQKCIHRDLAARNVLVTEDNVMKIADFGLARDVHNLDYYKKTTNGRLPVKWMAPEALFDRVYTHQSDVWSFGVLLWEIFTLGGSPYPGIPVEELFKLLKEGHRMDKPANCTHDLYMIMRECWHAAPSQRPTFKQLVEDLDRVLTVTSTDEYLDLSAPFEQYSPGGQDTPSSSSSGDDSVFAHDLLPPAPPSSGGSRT
Sequence of Fes (P07332 whole entry, looked up): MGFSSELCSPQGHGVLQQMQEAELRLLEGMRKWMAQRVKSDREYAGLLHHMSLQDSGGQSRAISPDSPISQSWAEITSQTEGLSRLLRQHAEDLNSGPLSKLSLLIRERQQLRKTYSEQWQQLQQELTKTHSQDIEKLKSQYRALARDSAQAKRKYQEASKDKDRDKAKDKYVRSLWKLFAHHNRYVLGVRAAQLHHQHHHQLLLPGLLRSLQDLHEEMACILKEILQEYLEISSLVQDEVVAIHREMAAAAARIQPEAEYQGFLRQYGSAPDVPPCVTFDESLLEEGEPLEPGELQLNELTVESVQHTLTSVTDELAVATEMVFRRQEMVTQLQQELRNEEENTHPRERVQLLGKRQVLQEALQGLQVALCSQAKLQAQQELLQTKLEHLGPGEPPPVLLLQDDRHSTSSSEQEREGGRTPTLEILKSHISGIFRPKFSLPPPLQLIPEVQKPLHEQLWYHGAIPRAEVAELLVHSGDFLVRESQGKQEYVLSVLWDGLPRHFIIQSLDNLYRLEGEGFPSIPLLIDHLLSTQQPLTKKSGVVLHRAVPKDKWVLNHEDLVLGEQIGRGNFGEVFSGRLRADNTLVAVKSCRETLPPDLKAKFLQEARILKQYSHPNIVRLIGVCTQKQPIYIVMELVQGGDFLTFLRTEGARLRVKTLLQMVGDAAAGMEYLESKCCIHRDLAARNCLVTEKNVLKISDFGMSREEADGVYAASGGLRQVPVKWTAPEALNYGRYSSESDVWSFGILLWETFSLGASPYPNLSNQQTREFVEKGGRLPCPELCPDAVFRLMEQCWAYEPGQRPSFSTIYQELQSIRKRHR
Sequence of Grb2 SH2 (P62993 whole entry, looked up): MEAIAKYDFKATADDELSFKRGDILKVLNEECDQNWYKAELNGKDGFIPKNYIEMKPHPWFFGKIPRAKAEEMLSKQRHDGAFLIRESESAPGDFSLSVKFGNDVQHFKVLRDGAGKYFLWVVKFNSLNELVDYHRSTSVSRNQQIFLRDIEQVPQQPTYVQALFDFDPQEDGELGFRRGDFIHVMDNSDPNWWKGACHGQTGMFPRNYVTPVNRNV
Sequence of MERTK (Q12866 whole entry, looked up): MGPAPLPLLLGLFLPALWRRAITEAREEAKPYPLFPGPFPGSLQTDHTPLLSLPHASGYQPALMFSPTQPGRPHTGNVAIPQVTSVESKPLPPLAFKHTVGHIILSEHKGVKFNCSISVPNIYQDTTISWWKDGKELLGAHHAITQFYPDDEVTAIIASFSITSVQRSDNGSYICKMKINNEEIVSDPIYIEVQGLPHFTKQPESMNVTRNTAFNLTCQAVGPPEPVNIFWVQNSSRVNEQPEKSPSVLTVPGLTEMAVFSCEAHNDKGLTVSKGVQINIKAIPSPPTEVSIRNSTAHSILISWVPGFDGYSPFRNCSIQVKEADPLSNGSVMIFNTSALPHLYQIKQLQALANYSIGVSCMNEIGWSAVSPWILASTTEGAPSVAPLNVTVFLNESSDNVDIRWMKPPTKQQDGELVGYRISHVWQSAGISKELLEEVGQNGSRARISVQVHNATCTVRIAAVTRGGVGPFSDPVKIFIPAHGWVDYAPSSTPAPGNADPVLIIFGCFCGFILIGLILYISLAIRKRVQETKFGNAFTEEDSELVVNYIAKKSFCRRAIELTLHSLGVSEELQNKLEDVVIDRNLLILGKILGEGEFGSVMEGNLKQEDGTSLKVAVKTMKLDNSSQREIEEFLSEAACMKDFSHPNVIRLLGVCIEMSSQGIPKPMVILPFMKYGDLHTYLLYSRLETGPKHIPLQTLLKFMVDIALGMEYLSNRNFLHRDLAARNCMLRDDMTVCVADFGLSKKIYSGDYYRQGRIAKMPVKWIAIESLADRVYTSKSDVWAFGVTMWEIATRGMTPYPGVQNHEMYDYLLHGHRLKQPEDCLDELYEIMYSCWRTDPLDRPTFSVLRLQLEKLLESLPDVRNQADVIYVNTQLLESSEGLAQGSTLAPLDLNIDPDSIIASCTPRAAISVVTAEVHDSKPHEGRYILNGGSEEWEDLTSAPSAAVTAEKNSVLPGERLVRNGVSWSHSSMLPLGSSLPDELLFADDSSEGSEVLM
Sequence of EPHB2 (P29323 whole entry, looked up): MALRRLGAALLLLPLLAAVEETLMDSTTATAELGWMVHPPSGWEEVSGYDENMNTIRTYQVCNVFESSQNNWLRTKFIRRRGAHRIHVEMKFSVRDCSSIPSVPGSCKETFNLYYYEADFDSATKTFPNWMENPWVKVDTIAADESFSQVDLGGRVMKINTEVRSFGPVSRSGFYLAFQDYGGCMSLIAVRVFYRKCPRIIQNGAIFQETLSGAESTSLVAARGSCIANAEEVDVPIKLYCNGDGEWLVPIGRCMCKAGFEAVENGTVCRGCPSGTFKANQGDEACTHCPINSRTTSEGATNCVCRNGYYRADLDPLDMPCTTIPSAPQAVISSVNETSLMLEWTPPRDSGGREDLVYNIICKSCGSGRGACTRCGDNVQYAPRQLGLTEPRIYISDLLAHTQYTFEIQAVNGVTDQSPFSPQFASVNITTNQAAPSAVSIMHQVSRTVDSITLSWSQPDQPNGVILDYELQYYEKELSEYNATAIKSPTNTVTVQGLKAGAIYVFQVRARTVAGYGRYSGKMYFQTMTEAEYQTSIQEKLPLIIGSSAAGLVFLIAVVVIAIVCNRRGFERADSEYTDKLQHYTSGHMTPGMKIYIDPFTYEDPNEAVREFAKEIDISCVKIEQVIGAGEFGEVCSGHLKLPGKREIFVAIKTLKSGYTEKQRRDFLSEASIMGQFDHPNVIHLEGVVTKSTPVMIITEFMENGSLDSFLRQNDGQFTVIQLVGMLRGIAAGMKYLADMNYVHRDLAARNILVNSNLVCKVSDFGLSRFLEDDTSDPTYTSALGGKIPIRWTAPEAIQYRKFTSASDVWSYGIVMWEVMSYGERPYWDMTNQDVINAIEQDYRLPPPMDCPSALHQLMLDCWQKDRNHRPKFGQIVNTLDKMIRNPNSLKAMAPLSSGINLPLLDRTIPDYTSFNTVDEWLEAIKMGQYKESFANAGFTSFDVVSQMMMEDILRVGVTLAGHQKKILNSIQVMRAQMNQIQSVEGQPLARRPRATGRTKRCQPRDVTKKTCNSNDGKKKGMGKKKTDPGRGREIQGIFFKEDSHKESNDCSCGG
Sequence of EPHB1 (P54762 whole entry, looked up): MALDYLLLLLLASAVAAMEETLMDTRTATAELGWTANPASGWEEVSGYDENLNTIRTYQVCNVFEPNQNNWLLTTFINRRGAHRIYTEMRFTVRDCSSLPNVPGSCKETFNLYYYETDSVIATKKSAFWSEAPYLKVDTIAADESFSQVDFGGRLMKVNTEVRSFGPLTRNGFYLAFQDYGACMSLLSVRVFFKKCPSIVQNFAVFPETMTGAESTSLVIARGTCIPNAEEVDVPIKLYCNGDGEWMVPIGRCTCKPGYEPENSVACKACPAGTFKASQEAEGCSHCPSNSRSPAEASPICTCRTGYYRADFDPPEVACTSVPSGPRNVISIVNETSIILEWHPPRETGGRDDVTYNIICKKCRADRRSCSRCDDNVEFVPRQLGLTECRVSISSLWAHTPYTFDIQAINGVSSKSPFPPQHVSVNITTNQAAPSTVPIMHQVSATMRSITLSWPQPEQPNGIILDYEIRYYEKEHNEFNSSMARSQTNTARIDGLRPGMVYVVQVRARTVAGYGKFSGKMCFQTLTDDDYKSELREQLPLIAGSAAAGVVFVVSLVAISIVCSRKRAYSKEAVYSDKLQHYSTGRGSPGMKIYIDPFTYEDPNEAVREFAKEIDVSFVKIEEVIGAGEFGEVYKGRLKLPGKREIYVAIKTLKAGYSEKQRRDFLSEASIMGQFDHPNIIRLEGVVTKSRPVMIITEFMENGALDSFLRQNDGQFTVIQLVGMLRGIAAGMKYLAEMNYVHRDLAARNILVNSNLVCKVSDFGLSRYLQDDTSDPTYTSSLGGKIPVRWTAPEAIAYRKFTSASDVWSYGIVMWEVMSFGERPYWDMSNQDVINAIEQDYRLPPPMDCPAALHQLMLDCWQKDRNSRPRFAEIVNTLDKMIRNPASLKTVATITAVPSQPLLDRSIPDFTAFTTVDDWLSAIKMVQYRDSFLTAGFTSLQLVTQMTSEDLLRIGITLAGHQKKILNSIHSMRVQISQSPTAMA

Row | Sequence | phosphorylation enrichment (AncSZ) | phosphorylation enrichment (EPHB1) | phosphorylation enrichment (EPHB2) | phosphorylation enrichment (FGFR1) | phosphorylation enrichment (FGFR3) | phosphorylation enrichment (Fer (mouse)) | phosphorylation enrichment (Fes) | phosphorylation enrichment (Fyn) | phosphorylation enrichment (Hck) | phosphorylation enrichment (Jak2) | phosphorylation enrichment (MERTK) | phosphorylation enrichment (c-Abl (mouse)) | phosphorylation enrichment (c-Src) | SH2 binding enrichment (Grb2 SH2) | SH2 binding enrichment (SHP2-C SH2) | SH2 binding enrichment (c-Src SH2)
1 | MQMEEYRGWVE [BTNL2_Y91] | 1.22 | 0.503 | 0.711 | 0.488 | 0.599 | 0.449 | 1.07 | 0.409 | 0.464 | 1.25 | 0.423 | 0.545 | 0.553 | 0.946 | 0.392 | 0.391
2 | MSPPGYKLVTG [GJA1_Y286] | 0.541 | 0.667 | 0.381 | 0.476 | 0.533 | 0.516 | 0.715 | 0.427 | 0.418 | 0.686 | 0.397 | 0.485 | 0.429 | 0.701 | 0.512 | 0.286
3 | MSRDVYSIDFF [NTRK2_Y702_T704I_YF] | 1.02 | 1.23 | 1.17 | 1.61 | 1.2 | 1.16 | 1.05 | 8.38 | 4.17 | 0.889 | 7.45 | 0.652 | 6.79 | 1.03 | 0.809 | 0.656
4 | MTEEQYIKMNR [ARFGEF2_Y797_K794E] | 0.941 | 0.478 | 0.502 | 0.558 | 0.638 | 0.524 | 1.09 | 0.451 | 0.493 | 1.02 | 0.386 | 0.612 | 0.441 | 0.674 | 0.435 | 0.376
5 | MTFQNYGQALF [FAM20C_Y279] | 0.901 | 0.758 | 1.65 | 0.46 | 0.739 | 0.496 | 0.827 | 0.458 | 0.462 | 0.893 | 0.429 | 0.605 | 0.489 | 0.921 | 0.783 | 0.515
6 | MTRDIYETDFF [INSR_Y1185_YF] | 1.13 | 0.936 | 0.788 | 0.56 | 0.821 | 1.15 | 1.39 | 1.93 | 1.4 | 1.23 | 1.22 | 0.909 | 2.06 | 0.855 | 0.565 | 0.997
7 | MYQVQYNSSVD [LRFN1_Y458] | 1.05 | 0.606 | 0.69 | 0.488 | 0.686 | 0.52 | 0.963 | 0.559 | 0.505 | 0.721 | 0.699 | 0.52 | 0.417 | 0.735 | 0.748 | 0.514
8 | NAGAFYALSTL [FLVCR2_Y325] | 0.784 | 0.822 | 0.784 | 0.61 | 0.649 | 3.19 | 0.764 | 0.567 | 0.752 | 0.751 | 4.76 | 0.608 | 1.23 | 0.979 | 0.837 | 0.592
9 | NAGAFYVLSTL [FLVCR2_Y325_A326V] | 1.03 | 0.55 | 0.573 | 0.483 | 0.699 | 0.525 | 1.17 | 0.464 | 0.476 | 0.995 | 0.705 | 0.69 | 0.523 | 0.634 | 0.6 | 0.489
10 | NAPNSYGRRLI [CDKN2A_Y44_P48L] | 0.627 | 0.372 | 0.454 | 0.446 | 0.509 | 0.475 | 0.616 | 0.413 | 0.504 | 0.531 | 0.442 | 0.48 | 0.449 | 0.897 | 0.32 | 0.332
11 | NDLMEYAKQHG [ASS1_Y163] | 0.852 | 0.48 | 0.471 | 0.487 | 0.563 | 0.541 | 0.896 | 0.457 | 0.502 | 0.856 | 0.426 | 0.75 | 0.437 | 0.724 | 0.621 | 0.381
12 | NDTAGYFIIGG [SEL1L3_Y399] | 1.15 | 0.547 | 0.523 | 1.77 | 1.34 | 0.494 | 1.14 | 0.582 | 0.601 | 6.38 | 0.834 | 0.78 | 0.584 | 0.693 | 0.812 | 7.59
13 | NFFDTCIKTCL [IQGAP2_Y1445_Y1445C_YF] | 0.809 | 0.484 | 0.491 | 0.476 | 0.607 | 0.45 | 1.01 | 0.369 | 0.407 | 0.879 | 0.523 | 0.721 | 0.521 | 1.15 | 1.06 | 1.01
14 | NFNPNYCFAGK [ALK_Y1096_D1091N_YF] | 1.25 | 2.56 | 1.01 | 0.548 | 0.666 | 0.706 | 0.821 | 0.612 | 0.651 | 0.744 | 0.846 | 0.617 | 0.472 | 0.876 | 0.881 | 0.681
15 | NFRPGYNNFFN [USH2A_Y467_YF] | 0.773 | 0.354 | 0.483 | 0.519 | 0.549 | 0.389 | 0.772 | 0.522 | 0.466 | 0.712 | 0.433 | 0.574 | 0.64 | 0.9 | 0.686 | 0.497
16 | NGSKAYAYVHF [PABPC5_Y147_G146A] | 1.06 | 0.514 | 0.52 | 0.568 | 0.646 | 0.637 | 1.03 | 0.4 | 0.438 | 0.796 | 0.656 | 0.634 | 0.401 | 0.903 | 18.8 | 6.01
